Results as given in patent US11419837B2, “Modified release orally administered amino acid formulations” (APR APPLIED PHARMA RESEARCH S.A., priority 2015, dated 2022).

Legend:
[1] = In vivo bioavailability in pig: mean aggregate plasma concentrations of 14 amino acids; settings: pigs, oral by gavage; for AUC 0-last / Cmax: 0.8 g of amino acid/kg body weight
Protocol: The following formulations were tested: • APR-04 (bkT037/72-4) • APR-07 (bkT037/73-7) • Free amino acid (bkT037/71) • Casein In Vivo Study Design: • Subjects: 8 pigs • Design: 4 formulations in crossover • Administration route and method: oral, by gavage. The product dose was administered to each animal mixed with a small amount of water (300 ml) in order to ensure fast (≤5 minutes) assumption. The total amount of the product was administered using syringes. The animals were fasted for 13.5±0.5 hours before the treatment and the access to water was suspended one hour before and one hour after the treatment. • Dose, frequency and duration of administration: The amount of product administered was based on body-weight and equaled 0.8 g of amino acid/kg body weight for each test product. The products were administered by a single administration in the morning of each day of treatment. • Wash out: 48-72 hours • Blood sampling: 0.75 h before Treatment (T), 0.5 h before T, 0.25 h before T, 0.25 h after T, 0.5 h after T, 0.75 h after T, 1 h after T, 1.25 h after T, 1.5 h after T, 2 h after T, 2.5 h after T, 3 h after T, 4 h after T, 5 h after T • Analysis: The plasma concentrations of 14 amino acids (Alanine, Arginine, Glutamine, Glycine, Histidine, Isoleucine, Leucine, Lysine, Proline, Serine, Threonine, Tryptophan, Tyrosine, Valine) were measured and analyzed. Methionine and Aspartic acid were excluded from the analysis due to stability issues. The following parameters were evaluated: Area Under the concentration/time Curve (AUC0-last), peak concentration (Cmax), time to peak concentration (Tmax) and Clast. The behavior of the two APR Formulations was compared to the formulation of Free Amino Acids and Casein. Results: […]

[2] = In vivo bioavailability in pig: mean of analyzed essential amino acid plasma concentrations; settings: ESSENTIAL AA (RAW DATA), pigs, oral by gavage, 0.8 g of amino acid/kg body weight
Protocol: (§1) The following formulations were tested: • APR-04 (bkT037/72-4) • APR-07 (bkT037/73-7) • Free amino acid (bkT037/71) • Casein In Vivo Study Design: • Subjects: 8 pigs • Design: 4 formulations in crossover • Administration route and method: oral, by gavage. The product dose was administered to each animal mixed with a small amount of water (300 ml) in order to ensure fast (≤5 minutes) assumption. The total amount of the product was administered using syringes. The animals were fasted for 13.5±0.5 hours before the treatment and the access to water was suspended one hour before and one hour after the treatment. • Dose, frequency and duration of administration: The amount of product administered was based on body-weight and equaled 0.8 g of amino acid/kg body weight for each test product. The products were administered by a single administration in the morning of each day of treatment. • Wash out: 48-72 hours • Blood sampling: 0.75 h before Treatment (T), 0.5 h before T, 0.25 h before T, 0.25 h after T, 0.5 h after T, 0.75 h after T, 1 h after T, 1.25 h after T, 1.5 h after T, 2 h after T, 2.5 h after T, 3 h after T, 4 h after T, 5 h after T • Analysis: The plasma concentrations of 14 amino acids (Alanine, Arginine, Glutamine, Glycine, Histidine, Isoleucine, Leucine, Lysine, Proline, Serine, Threonine, Tryptophan, Tyrosine, Valine) were measured and analyzed. Methionine and Aspartic acid were excluded from the analysis due to stability issues. The following parameters were evaluated: Area Under the concentration/time Curve (AUC0-last), peak concentration (Cmax), time to peak concentration (Tmax) and Clast. The behavior of the two APR Formulations was compared to the formulation of Free Amino Acids and Casein. Results:
The amino acids aggregated together for analysis were Arginine, Histidine, Isoleucine, Leucine, Threonine, Lysine, Tryptophan and Valine. This subgroup was chosen for analysis because these amino acids cannot be endogenously synthesized. As a result, their concentrations in plasma from sampling the jugular vein may be more representative of the intestinal adsorption of the tested formulations than the non-essential amino acids whose presence in blood could be independently generated by the organism.
The statistical analysis for the date reported in Table 14c (for AUC, Cmax, and Clast: one-way repeated measures ANOVA with post hoc analysis with Bonferroni adjustment; for Tmax: Friedman test followed by multiple sign test for pairwise comparison) is reported in Table 14d.

[3] = In vivo bioavailability in pig: mean of branched chain amino acid (BCAA) plasma concentrations; settings: BCAA (RAW DATA), pigs, oral by gavage, 0.8 g of amino acid/kg body weight
Protocol: as §1
The amino acids aggregated together for analysis were valine, isoleucine and leucine. This subgroup of essential amino acids was chosen for analysis because these essential amino acids are unique among amino acids in that their first catabolic step cannot occur in the liver. As a consequence, they largely escape first-pass splanchnic metabolism (Brosnan et al).
The statistical analysis for the date reported in Table 14e (for AUC, Cmax, and Clast: one-way repeated measures ANOVA with post hoc analysis with Bonferroni adjustment; for Tmax: Friedman test followed by multiple sign test for pairwise comparison) is reported in Table 14f

[4] = In vivo bioavailability in pig: large neutral amino acid (LNAA) plasma concentrations; settings: LNAA (RAW DATA), pigs, oral by gavage
Protocol: as §1
The amino acids aggregated together for analysis were tryptophan, threonine, valine, isoleucine, leucine, histidine. […] Phenylalanine was excluded from the analysis because it was not present in the formulations tested. This subgroup of essential amino acids was chosen for analysis because LNAA share with phenylalanine a common transport system in order to enter the brain. High plasma concentration of LNAAs may reduce the uptake into the brain(Van Spronsen et al). might thus bring clinical advantages. In particular, if the analysis on the subgroup show an increased Clast for the APR formulations versus the free amino acid formulations, it can be speculated that the patient may have a sort of “prolonged protection/tolerance” to phenylalanine.

[5] = 14 AA (BC DATA, basal values subtracted)
[6] = 14 AA (RAW DATA, basal values not subtracted)
[7] = tryptophan, threonine, valine, isoleucine, leucine, histidine, 0.8 g of amino acid/kg

Q: For Casein, which “AUC 0-last” value [1, 5] is on record?
A: 258.9

Q: And the Cmax [1, 5]?
A: 147 µM

Q: What about the Clast ([1]; 14 AA (RAW DATA), plasma concentration at the last sampling (5h), 0.8 g of amino acid/kg) of the same substance?
A: 172.9

Q: And the “AUC 0-last” value [1, 6]?
A: 1125.6

Q: What about the Cmax [1, 6] of the same substance?
A: 325 µM

Q: What about the Clast ([2]; last sampling (5h)) of the same substance?
A: 153.0

Q: What about the “AUC 0-last” value [2] of the same substance?
A: 969.9

Q: What about the Cmax [2] of the same substance?
A: 299 µM

Q: And the Tmax [2]?
A: 1.16 h

Q: What about the Clast ([3]; last sampling (5h)) of the same substance?
A: 228.7

Q: And the “AUC 0-last” value ([3]; valine, isoleucine and leucine)?
A: 1365.3

Q: What about the Cmax ([3]; valine, isoleucine and leucine) of the same substance?
A: 401 µM

Q: What about the Tmax ([3]; valine, isoleucine and leucine) of the same substance?
A: 1.16 h

Q: And the Clast ([4]; last sampling (5h), 0.8 g of amino acid/kg body weight)?
A: 143.0

Q: And the “AUC 0-last” value [4, 7]?
A: 868.9

Q: And the Cmax [4, 7]?
A: 257 µM

Q: What about the Tmax [4, 7] of the same substance?
A: 1.16 h
